Measured values from patent publication US11891445 (ABL BIO, dated 2024).

T1: recombinant human B7-H3 protein (bought antigen used for ELISA analysis and T cell activity analysis) (human, UniProt Q5ZPR3 29-461)
T1 construct: range 1-461; also called extracellular domain (ECD) of B7-H3 protein; not shown: C-terminal histidine tag or Fc region of human IgG1 (Sino Biological 11188-H02H)
T1 sequence (looked up): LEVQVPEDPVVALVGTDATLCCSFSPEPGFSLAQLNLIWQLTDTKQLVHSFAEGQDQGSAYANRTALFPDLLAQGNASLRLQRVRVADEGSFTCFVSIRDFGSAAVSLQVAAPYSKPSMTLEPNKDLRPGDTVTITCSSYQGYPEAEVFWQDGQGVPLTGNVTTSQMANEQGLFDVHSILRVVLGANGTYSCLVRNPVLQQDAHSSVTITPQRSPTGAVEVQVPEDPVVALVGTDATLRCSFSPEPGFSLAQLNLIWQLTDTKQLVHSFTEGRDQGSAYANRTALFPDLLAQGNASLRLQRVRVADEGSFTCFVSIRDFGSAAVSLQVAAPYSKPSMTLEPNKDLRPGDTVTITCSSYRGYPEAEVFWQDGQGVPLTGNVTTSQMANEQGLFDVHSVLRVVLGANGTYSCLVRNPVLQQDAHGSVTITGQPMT

T2: recombinant human B7-H3 protein with a histidine tag linked to the C terminal (2318-B3/CF, R&D Systems) (human) (UniProt Q5ZPR3)
T2 sequence (looked up): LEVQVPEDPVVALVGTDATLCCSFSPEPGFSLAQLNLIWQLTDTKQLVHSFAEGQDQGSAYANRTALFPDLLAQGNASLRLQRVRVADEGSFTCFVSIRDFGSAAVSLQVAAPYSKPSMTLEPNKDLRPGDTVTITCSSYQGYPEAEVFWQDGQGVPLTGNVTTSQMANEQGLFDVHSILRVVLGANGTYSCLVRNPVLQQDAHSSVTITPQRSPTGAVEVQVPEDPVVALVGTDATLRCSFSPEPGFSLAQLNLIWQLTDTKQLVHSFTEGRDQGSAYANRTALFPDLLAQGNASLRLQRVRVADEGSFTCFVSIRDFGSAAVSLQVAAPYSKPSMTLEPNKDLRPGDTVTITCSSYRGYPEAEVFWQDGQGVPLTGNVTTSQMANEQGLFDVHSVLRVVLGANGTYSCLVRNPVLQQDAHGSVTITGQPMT


Legend:
[1] = target: T1, recombinant human B7-H3 protein (bought …); experiment: ELISA on plate-coated recombinant human B7-H3
Description: Specifically, after diluting the recombinant human B7-H3 protein at a concentration of 1 µg/ml and putting it into a 96-well plate (Nunc-Immuno Plates, NUNC) in 100 µl per well, it was reacted at 4° C. for 16 hrs for coating. The recombinant human B7-H3 protein used in Example 1 was used here.
Then, after removing the protein and washing it with PBST, a PBS buffer comprising 1% BSA (bovine serum albumin) was put at 200 µl per well and it was reacted at 37° C. for 2 hrs to block non-specific binding. Then, after diluting anti-B7-H3 antibodies prepared in Example 2 at a concentration of 10 µg/ml on the 96-well plate, 100 µl was put in each well and it was reacted at 37° C. for 1 hr. Then after it was washed with PBST. In order to detect antibodies bound to human B7-H3, HRP-connected anti-human IgG F(ab')2 antibody (Goat anti-Human IgG F(ab')2 Cross-Adsorbed Secondary Antibody, HRP, Pierce, 31414) was diluted by 1:10,000 in PBS comprising 1% bovine serum albumin (BSA), and 100 µl was put per well and it was reacted at 37° C. for about 1 hr. After washing it with PBST again, TMB (Tetramethylbenzidine, Sigma, T0440) 100 µl was put to develop color. After reacting it at RT for 5-10 min, 50 µl of 1N H_2SO_4 was put to finish the reaction, and the absorbance at 450 nm and 650 nm was measured by using a micro plate reader (molecular device).

[2] = target: T2, recombinant human B7-H3 protein with a histidine tag linked to the C terminal (2318-B3/CF, R&D Systems) (human); experiment: ELISA, soluble scFv on coated B7-H3-His 100 ng per well, anti-HA HRP

Binder	EC50 (read off the curve) [1] [nM]	absorbance at 450 nm [2]
anti-B7-H3 antibody D8G M1 (full IgG form) (antibody, V domains shown) VH: EVQLLESGGGLVQPGGSLRLSCAASGFTFSSYSMSWVRQAPGKGLEWVSGIYSDASNTYYADSVKGRFTISRDNSKNTLYLQMNSLRAEDTAVYYCAKMLHRFDYWGQGTLVTVSS VL: QSVLTQPPSASGTPGQRVTISCSGSSSNIGSNSVTWYQQLPGTAPKLLIYADSQRPSGVPDRFSGSKSGTSASLAISGLRSEDEADYYCGTWDSSLNAYVFGGGTKLTVLG	~0.02	–
anti-B7-H3 antibody D8G M3 (full IgG form) (antibody, V domains shown) VH: EVQLLESGGGLVQPGGSLRLSCAASGFTFSSYSMSWVRQAPGKGLEWVSGIYSDASNTYYADSVKGRFTISRDNSKNTLYLQMNSLRAEDTAVYYCAKMLHRFDYWGQGTLVTVSS VL: QSVLTQPPSASGTPGQRVTISCSGSSSNIGSNSVTWYQQLPGTAPKLLIYADVQRPSGVPDRFSGSKSGTSASLAISGLRSEDEADYYCGTWDSSLNAYVFGGGTKLTVLG	~0.02	–
anti-B7-H3 scFv clone B5 (soluble monoclonal scFv) (scFv, part only; not given: linker, domain order and HA tag, V domains shown, not shown: another chain or arm of the molecule; small tags and cut ends) VH: EVQLLESGGGLVQPGGSLRLSCAASGFTFSDYAMSWVRQAPGKGLEWVSSISSGSGSIYYADSVKGRFTISRDNSKNTLYLQMNSLRAEDTAVYYCAKNLIPLDYWGQGTLVTVSS VL: QSVLTQPPSASGTPGQRVTISCSGSSSNIGSNAVSWYQQLPGTAPKLLIYYNSHRPSGVPDRFSGSKSGTSASLAISGLRSEDEADYYCGSWDASLNAYVFGGGTKLTVL	–	1
anti-B7-H3 scFv clone C4I (soluble monoclonal scFv) (scFv, part only; not given: linker, domain order and HA tag, V domains shown, not shown: another chain or arm of the molecule; small tags and cut ends) VH: EVQLLESGGGLVQPGGSLRLSCAASGFTFSGYYMSWVRQAPGKGLEWVSLISPSSGSIYYADSVKGRFTISRDNSKNTLYLQMNSLRAEDTAVYYCAKGLTKFDYWGQGTLVTVSS VL: QSVLTQPPSASGTPGQRVTISCTGSSSNIGSNDVSWYQQLPGTAPKLLIYANSHRPSGVPDRFSGSKSGTSASLAISGLRSEDEADYYCGSWDDSLSGYVFGGGTKLTVL	–	1

Continued, values first:

EC50 (read off the curve) [1] [nM]	absorbance at 450 nm [2]	Binder
–	1	anti-B7-H3 scFv clone D8G M3 (soluble monoclonal scFv) (scFv, part only; not given: linker, domain order and HA tag, V domains shown, not shown: another chain or arm of the molecule; small tags and cut ends) VH: EVQLLESGGGLVQPGGSLRLSCAASGFTFSSYSMSWVRQAPGKGLEWVSGIYSDASNTYYADSVKGRFTISRDNSKNTLYLQMNSLRAEDTAVYYCAKMLHRFDYWGQGTLVTVSS VL: QSVLTQPPSASGTPGQRVTISCSGSSSNIGSNSVTWYQQLPGTAPKLLIYADVQRPSGVPDRFSGSKSGTSASLAISGLRSEDEADYYCGTWDSSLNAYVFGGGTKLTVL
–	1	anti-B7-H3 scFv clone D8G (soluble monoclonal scFv) (scFv, part only; not given: linker, domain order and HA tag, V domains shown, not shown: another chain or arm of the molecule; small tags and cut ends) VH: EVQLLESGGGLVQPGGSLRLSCAASGFTFSSYSMSWVRQAPGKGLEWVSGIYSDGSNTYYADSVKGRFTISRDNSKNTLYLQMNSLRAEDTAVYYCAKMLHRFDYWGQGTLVTVSS VL: QSVLTQPPSASGTPGQRVTISCSGSSSNIGSNSVTWYQQLPGTAPKLLIYADSQRPSGVPDRFSGSKSGTSASLAISGLRSEDEADYYCGTWDSSLNAYVFGGGTKLTVL
–	1	anti-B7-H3 scFv clone D8G M1 (soluble monoclonal scFv) (scFv, part only; not given: linker, domain order and HA tag, V domains shown, not shown: another chain or arm of the molecule; small tags and cut ends) VH: EVQLLESGGGLVQPGGSLRLSCAASGFTFSSYSMSWVRQAPGKGLEWVSGIYSDASNTYYADSVKGRFTISRDNSKNTLYLQMNSLRAEDTAVYYCAKMLHRFDYWGQGTLVTVSS VL: QSVLTQPPSASGTPGQRVTISCSGSSSNIGSNSVTWYQQLPGTAPKLLIYADSQRPSGVPDRFSGSKSGTSASLAISGLRSEDEADYYCGTWDSSLNAYVFGGGTKLTVL
–	1	anti-B7-H3 scFv clone F6V (soluble monoclonal scFv) (scFv, part only; not given: linker, domain order and HA tag, V domains shown, not shown: another chain or arm of the molecule; small tags and cut ends) VH: EVQLLESGGGLVQPGGSLRLSCAASGFTFSDYAMSWVRQAPGKGLEWVSGISPGGSNTYYADSVKGRFTISRDNSKNTLYLQMNSLRAEDTAVYYCAKDAWIARLLLFDYWGQGTLVTVSS VL: QSVLTQPPSASGTPGQRVTISCSGSSSNIGSNAVTWYQQLPGTAPKLLIYYNNKRPSGVPDRFSGSKSGTSASLAISGLRSEDEADYYCGTWDDSLSGYVFGGGTKLTVL
